What all share (details): 0.1 M McIlvaine buffer pH 4.5, 25 °C, native glycosylated enzyme
Substrate in series [1]: COc1cc(C=NN=Cc2cc(OC)c(O)c(OC)c2)cc(OC)c1O
The experiment in a line: spectrophotometric oxidation kinetics. The format is biochemical, Steccherinum ochraceum. From the text:
(§1) spectrophotometric oxidation kinetics on So3827

Substrate in series [2]: CCn1c(=NN=c2sc3cc(S(=O)(=O)O)ccc3n2CC)sc2cc(S(=O)(=O)O)ccc21
The experiment in a line: spectrophotometric oxidation kinetics. In kind it is biochemical, Steccherinum ochraceum.
Text: as §1

Substrate in the series “purified protein”: COc1ccccc1O
The experiment in a line: purified protein.

Substrate in series [3]: Oc1ccccc1O
The experiment in a line: spectrophotometric oxidation kinetics. The format is biochemical, Steccherinum ochraceum. From the text:
(§2) spectrophotometric oxidation kinetics on So3174

Substrate in series [4]: COc1cc(C=NN=Cc2cc(OC)c(O)c(OC)c2)cc(OC)c1O
The experiment in a line: spectrophotometric oxidation kinetics. In kind it is biochemical, Steccherinum ochraceum.
Text: as §2
The source holds these as a separate data set.

Substrate in series [5]: COc1cccc(OC)c1O
The experiment in a line: spectrophotometric oxidation kinetics. In kind it is biochemical, Steccherinum ochraceum.
Text: as §2

Substrate in series [6]: CCn1c(=NN=c2sc3cc(S(=O)(=O)O)ccc3n2CC)sc2cc(S(=O)(=O)O)ccc21
The experiment in a line: spectrophotometric oxidation kinetics. The format is biochemical, Steccherinum ochraceum.
Text: as §2
The source holds these as a separate data set.

Substrate in series [7]: COc1cc(C=NN=Cc2cc(OC)c(O)c(OC)c2)cc(OC)c1O
The experiment in a line: spectrophotometric oxidation kinetics. The format is biochemical, Steccherinum ochraceum. From the text: (§3) spectrophotometric oxidation kinetics on So3617
The source holds these as a separate data set.

Substrate in series [8]: CCn1c(=NN=c2sc3cc(S(=O)(=O)O)ccc3n2CC)sc2cc(S(=O)(=O)O)ccc21
The experiment in a line: spectrophotometric oxidation kinetics. The format is biochemical, Steccherinum ochraceum.
Text: as §3
The source holds these as a separate data set.

Substrate in series [9]: COc1cc(C=NN=Cc2cc(OC)c(O)c(OC)c2)cc(OC)c1O
The experiment in a line: spectrophotometric oxidation kinetics. In kind it is biochemical, Steccherinum ochraceum. From the text: (§4) spectrophotometric oxidation kinetics on So3622
This is another data set of the same source.

Substrate in series [10]: CCn1c(=NN=c2sc3cc(S(=O)(=O)O)ccc3n2CC)sc2cc(S(=O)(=O)O)ccc21
The experiment in a line: spectrophotometric oxidation kinetics. In kind it is biochemical, Steccherinum ochraceum.
Text: as §4
The source holds these as a separate data set.

Substrate in series [11]: COc1cc(C=NN=Cc2cc(OC)c(O)c(OC)c2)cc(OC)c1O
The experiment in a line: spectrophotometric oxidation kinetics. The format is biochemical, Steccherinum ochraceum. From the text: (§5) spectrophotometric oxidation kinetics on So3398
The source holds these as a separate data set.

Substrate in series [12]: COc1cccc(OC)c1O
The experiment in a line: spectrophotometric oxidation kinetics. In kind it is biochemical, Steccherinum ochraceum.
Text: as §5
The source holds these as a separate data set.

Substrate in series [13]: CCn1c(=NN=c2sc3cc(S(=O)(=O)O)ccc3n2CC)sc2cc(S(=O)(=O)O)ccc21
The experiment in a line: spectrophotometric oxidation kinetics. In kind it is biochemical, Steccherinum ochraceum.
Text: as §5
The source holds these as a separate data set.

Substrate in series [14]: COc1cc(C=NN=Cc2cc(OC)c(O)c(OC)c2)cc(OC)c1O
The experiment in a line: spectrophotometric oxidation kinetics. The format is biochemical, Steccherinum ochraceum. From the text: (§6) spectrophotometric oxidation kinetics on So3120
The source holds these as a separate data set.

Substrate in series [15]: COc1cccc(OC)c1O
The experiment in a line: spectrophotometric oxidation kinetics. The format is biochemical, Steccherinum ochraceum.
Text: as §6
This is another data set of the same source.

Substrate in series [16]: CCn1c(=NN=c2sc3cc(S(=O)(=O)O)ccc3n2CC)sc2cc(S(=O)(=O)O)ccc21
The experiment in a line: spectrophotometric oxidation kinetics. The format is biochemical, Steccherinum ochraceum.
Text: as §6
The source holds these as a separate data set.

B1: So3827 (Steccherinum ochraceum) (protein)
chain: VQIGPVTDLHITNANIAPDGFTRPAVLAGGTFPGPTISGNTGDNFQITVFNELTETSMLTDTSIHWHGLFQKGTNWADGPAFVTQCPIITGNSFDYNFNVPGQAGTYWYHSHLSTQYCDGLRGPFVVYDPNDPNASLYDVDDDTTIITLADWYHTLAQQEPIGAAITADATLINGLGRSFTNTTASPLSVITVQSGKRYRMRLVSISCDPNYQFSIDGHDMTIIEVDGVNSQQLTVDQIQIFAAQRYSFVLNANQPVGNYWIRAQPNSGGQGFDGGINSAILRYEGATVADPTTSPPTTFTSPLVETNLHPLADLGVPGQPFRGGADDPMVLNLGFANGRFTIDGVSFVPPTVPVLLQILSGAQNAQDLLPAGSVISLPPNSVIEVALPAGAAGGPHPFHLHGHNFAVVQSANNATPNYVNPIWRDTVSIGGTGDNVTIRFTTNNPGPWFLHCHIDWHLEAGFAIVFAEDIPDTASANPVPQAWSDLCPAYDQAHNISTAT
For orientation: Km means the substrate concentration at which the rate is half of its maximum. For orientation: kcat means the maximal rate divided by the concentration of active sites. The term kcat/Km denotes the turnover number divided by the Michaelis constant. Regarding B1, in [1], the Michaelis constant (Km) stood at 6.7 ± 0.9 µM, the kcat came to 113 ± 12 s⁻¹ and the kcat/Km is 1.69e+07 ± 2.87e+06 M⁻¹ s⁻¹. Also, in series [2], the Michaelis-Menten constant (Km) came out at 200 ± 7 µM, the kcat came to 276 ± 31 s⁻¹ and the kcat/Km was 1.38e+06 ± 162000 M⁻¹ s⁻¹.

B2: So3174 (Steccherinum ochraceum) (protein)
chain: VQIGPVTDLHITNANIAPDGFTRPAVLAGGTFPGPTISGNTGDNFQITVFNELTETSMLTDTSIHWHGLFQKGTNWADGPAFVTQCPIITGNSFDYNFNVPGQAGTYWYHSHLSTQYCDGLRGPFVVYDPNDPNASLYDVDDDTTIITLADWYHTLAQQEPIGAAITADATLINGLGRSFTNTTASPLSVITVQSGKRYRMRLVSISCDPNYQFSIDGHDMTIIEVDGVNSQQLTVDQIQIFAAQRYSFVLNANQPVGNYWIRAQPNSGGQGFDGGINSAILRYEGATVADPTTSPPTTFTSPLVETNLHPLADLGVPGQPFRGGADDPMVLNLGFANGRFTIDGVSFVPPTVPVLLQILSGAQNAQDLLPAGSVISLPPNSVIEVALPAGAAGGPHPFHLHGHNFAVVQSANNATPNYVNPIWRDTVSIGGTGDNVTIRFTTNNPGPWFLHCHIDWHLEAGFAIVFAEDIPDTASANPVPQAWSDLCPAYDQAHNISTAT
As for B2, the Km in “purified protein” is on record as 2230 ± 205 µM; in series [3], 576 ± 86 µM; in series [4] it was 3.8 ± 0.6 µM; in series [5], 20 ± 2 µM; in series [6] it was 81 ± 9 µM. Moreover, the catalytic constant (kcat) in “purified protein” turned out to be 152 s⁻¹; in series [3], 373 ± 27 s⁻¹; in [4], 104 ± 11 s⁻¹; in series [5], 101 ± 9 s⁻¹; in series [6] it was 240 ± 21 s⁻¹. Moreover, the kcat/Km was 68000 M⁻¹ s⁻¹ in “purified protein”; 648000 ± 108000 M⁻¹ s⁻¹ in [3]; 2.74e+07 ± 5.09e+06 M⁻¹ s⁻¹ in [4]; 5.05e+06 ± 755000 M⁻¹ s⁻¹ in [5]; 2.96e+06 ± 416000 M⁻¹ s⁻¹ in [6].

B3: So3617 (Steccherinum ochraceum) (protein)
chain: VQIGPVTDLHITNANIAPDGFTRPAVLAGGTFPGPTISGNTGDNFQITVFNELTETSMLTDTSIHWHGLFQKGTNWADGPAFVTQCPIITGNSFDYNFNVPGQAGTYWYHSHLSTQYCDGLRGPFVVYDPNDPNASLYDVDDDTTIITLADWYHTLAQQEPIGAAITADATLINGLGRSFTNTTASPLSVITVQSGKRYRMRLVSISCDPNYQFSIDGHDMTIIEVDGVNSQQLTVDQIQIFAAQRYSFVLNANQPVGNYWIRAQPNSGGQGFDGGINSAILRYEGATVADPTTSPPTTFTSPLVETNLHPLADLGVPGQPFRGGADDPMVLNLGFANGRFTIDGVSFVPPTVPVLLQILSGAQNAQDLLPAGSVISLPPNSVIEVALPAGAAGGPHPFHLHGHNFAVVQSANNATPNYVNPIWRDTVSIGGTGDNVTIRFTTNNPGPWFLHCHIDWHLEAGFAIVFAEDIPDTASANPVPQAWSDLCPAYDQAHNISTAT
Turning to B3, in [7], the Michaelis constant (Km) was determined as 5.2 ± 0.6 µM, the kcat is 89 ± 10 s⁻¹ and the kcat/Km stood at 1.71e+07 ± 2.69e+06 M⁻¹ s⁻¹. In [8], the Km worked out at 212 ± 10 µM, the kcat turned out to be 228 ± 21 s⁻¹ and the specificity constant (kcat/Km) came to 1.08e+06 ± 111000 M⁻¹ s⁻¹.

B4: So3622 (Steccherinum ochraceum) (protein)
chain: VQIGPVTDLHITNANIAPDGFTRPAVLAGGTFPGPTISGNTGDNFQITVFNELTETSMLTDTSIHWHGLFQKGTNWADGPAFVTQCPIITGNSFDYNFNVPGQAGTYWYHSHLSTQYCDGLRGPFVVYDPNDPNASLYDVDDDTTIITLADWYHTLAQQEPIGAAITADATLINGLGRSFTNTTASPLSVITVQSGKRYRMRLVSISCDPNYQFSIDGHDMTIIEVDGVNSQQLTVDQIQIFAAQRYSFVLNANQPVGNYWIRAQPNSGGQGFDGGINSAILRYEGATVADPTTSPPTTFTSPLVETNLHPLADLGVPGQPFRGGADDPMVLNLGFANGRFTIDGVSFVPPTVPVLLQILSGAQNAQDLLPAGSVISLPPNSVIEVALPAGAAGGPHPFHLHGHNFAVVQSANNATPNYVNPIWRDTVSIGGTGDNVTIRFTTNNPGPWFLHCHIDWHLEAGFAIVFAEDIPDTASANPVPQAWSDLCPAYDQAHNISTAT
Turning to B4, in series [9], the Km is given as 5.5 ± 0.7 µM, the catalytic constant (kcat) stood at 83 ± 7 s⁻¹ and the kcat/Km is 1.51e+07 ± 2.21e+06 M⁻¹ s⁻¹. Moreover, in series [10], the Km is on record as 174 ± 11 µM, the kcat came out at 252 ± 20 s⁻¹ and the kcat/Km came out at 1.45e+06 ± 147000 M⁻¹ s⁻¹.

B5: So3398 (Steccherinum ochraceum) (protein)
chain: VQIGPVTDLHITNANIAPDGFTRPAVLAGGTFPGPTISGNTGDNFQITVFNELTETSMLTDTSIHWHGLFQKGTNWADGPAFVTQCPIITGNSFDYNFNVPGQAGTYWYHSHLSTQYCDGLRGPFVVYDPNDPNASLYDVDDDTTIITLADWYHTLAQQEPIGAAITADATLINGLGRSFTNTTASPLSVITVQSGKRYRMRLVSISCDPNYQFSIDGHDMTIIEVDGVNSQQLTVDQIQIFAAQRYSFVLNANQPVGNYWIRAQPNSGGQGFDGGINSAILRYEGATVADPTTSPPTTFTSPLVETNLHPLADLGVPGQPFRGGADDPMVLNLGFANGRFTIDGVSFVPPTVPVLLQILSGAQNAQDLLPAGSVISLPPNSVIEVALPAGAAGGPHPFHLHGHNFAVVQSANNATPNYVNPIWRDTVSIGGTGDNVTIRFTTNNPGPWFLHCHIDWHLEAGFAIVFAEDIPDTASANPVPQAWSDLCPAYDQAHNISTAT
For B5, in series [11], the Km is given as 5.6 ± 0.8 µM, the kcat was found to be 119 ± 11 s⁻¹ and the catalytic efficiency (kcat/Km) is 2.12e+07 ± 3.56e+06 M⁻¹ s⁻¹. Besides, in [12], the Michaelis constant (Km) amounted to 17 ± 3 µM, the kcat was 152 ± 12 s⁻¹ and the catalytic efficiency (kcat/Km) came out at 8.94e+06 ± 1.52e+06 M⁻¹ s⁻¹. Moreover, in [13], the Km came to 209 ± 27 µM, the kcat amounted to 281 ± 26 s⁻¹ and the kcat/Km was determined as 1.34e+06 ± 214000 M⁻¹ s⁻¹.

B6: So3120 (Steccherinum ochraceum) (protein)
chain: VQIGPVTDLHITNANIAPDGFTRPAVLAGGTFPGPTISGNTGDNFQITVFNELTETSMLTDTSIHWHGLFQKGTNWADGPAFVTQCPIITGNSFDYNFNVPGQAGTYWYHSHLSTQYCDGLRGPFVVYDPNDPNASLYDVDDDTTIITLADWYHTLAQQEPIGAAITADATLINGLGRSFTNTTASPLSVITVQSGKRYRMRLVSISCDPNYQFSIDGHDMTIIEVDGVNSQQLTVDQIQIFAAQRYSFVLNANQPVGNYWIRAQPNSGGQGFDGGINSAILRYEGATVADPTTSPPTTFTSPLVETNLHPLADLGVPGQPFRGGADDPMVLNLGFANGRFTIDGVSFVPPTVPVLLQILSGAQNAQDLLPAGSVISLPPNSVIEVALPAGAAGGPHPFHLHGHNFAVVQSANNATPNYVNPIWRDTVSIGGTGDNVTIRFTTNNPGPWFLHCHIDWHLEAGFAIVFAEDIPDTASANPVPQAWSDLCPAYDQAHNISTAT
On to B6, for which the Km is reported as 5.4 ± 0.8 µM in [14], 17 ± 3 µM in [15] and 175 ± 23 µM in [16]. For the same protein, the kcat was 105 ± 12 s⁻¹ in [14], 110 ± 14 s⁻¹ in series [15] and 325 ± 28 s⁻¹ in [16]. The catalytic efficiency (kcat/Km) in series [14] is 1.94e+07 ± 3.62e+06 M⁻¹ s⁻¹; in series [15] it was 6.47e+06 ± 1.27e+06 M⁻¹ s⁻¹; in series [16] it was 1.86e+06 ± 290000 M⁻¹ s⁻¹.

The values are drawn from article PMC6515407, “Laccases with Variable Properties from Different Strains of Steccherinum ochraceum: Does Glycosylation Matter?” (International Journal of Molecular Sciences, 2019).
